Source: patent publication US20040091878

Columns and labels:
Experiment in all cases: EMSA
[1] = system: Clone 6 ZFP (6-finger) (artificial); conditions: probe flanks not given; 0.1 mM ZnCl2
[2] = system: Clone 7 ZFP (6-finger) (artificial); conditions: probe flanks not given; Table 5 prints TAGGTGGCATTGGGTGCTC, listing SEQ 67 tacgtggcattgggtgctc
[3] = system: Clone 5 ZFP (BCTV whole L1, 6-finger) (artificial); conditions: probe 0.03 fmol per 10 ul; vast majority bound at 3 pM; 0.1 mM ZnCl2

“AGTAAGGTAGGAGATGATA (double strand) [Clone 6 target]” showed a Kd [1] of less than 3 pM.

“TACGTGGCATTGGGTGCTC (double strand) [Clone 7 target]” gave a Kd [2] of less than 3 pM.

“TATATATATTGGGTGCTTTGGGTGCTCTATATATA (double strand) [BCTV whole L1 probe]” gave a Kd [3] of less than 3 pM.
